Data from patent publication US20160011207A1, “DIAGNOSIS AND THERAPY OF CHRONIC INFLAMMATION-INDUCED DISORDERS” (VIRGINIA COMMONWEALTH UNIVERSITY, priority 2012, published 2016).
“Also recorded” adds a separate entry of the source.

Columns and labels:
[1] = system: primary adipocytes, myoblasts and hepatocytes; assay: Insulin sensitizing effects of IGFBP-3 in cells treated with proteases and inhibitors (Example 7); type: cell-based; conditions: Example 7, written in present tense
From the text: The levels of the three NSPs and IGFBP-3 protease activity in sera from lean and obese mice fed with CD and HFD, respectively, for 16 weeks are investigated using Western immunoblotting, ELISAs and an IGFBP-3 protease activity assay. Further, the impact of PR3-induced proteolysis and inhibitors (Prolastin and a small peptide inhibitor) on insulin sensitizing effects of IGFBP-3 in primary adipocytes (Invitrogen/Life Technologies, Grand Islands N.Y.), myoblasts and hepatocytes (Eton Bioscience, Research Triangle Park, N.C.) is investigated. The cells are treated with IGFBP-3 or PR3 proteolyzed IGFBP-3 fragments with and without insulin, and analyzed for glucose uptake, levels of insulin receptor substrates (IRSs), glucose transporters (GLUTs), adiponectin (in adipocytes) and intracellular glycogen content (in hepatocytes) using a glucose uptake assay, qRT-PCR, Western immunoblotting and a glycogen assay kit. Further experiments are performed to treat cells with IGFBP-3 and PR3 in the presence and absence of Prolastin or the small peptide inhibitor(s) described herein. The inhibitory effects of NE and CG on IGFBP-3's insulin-sensitizing effects are also determined using similar laboratory methods. The involvement of IGFBP-3R on the insulin signaling pathway is also investigated by manipulating endogenous IGFBP-3R expression using IGFBP-3R siRNAs. […]

PR3 = biological target: T1, PR3 (Homo sapiens, UniProt P24158); assay: In vitro IGFBP-3 proteolysis by PR3, Western immunoblotting; type: biochemical; conditions: for inhibition of PR3-induced IGFBP-3 proteolysis (Western immunoblot, in words): FIG. 8 and 9A
T1 sequence (P24158 28-248): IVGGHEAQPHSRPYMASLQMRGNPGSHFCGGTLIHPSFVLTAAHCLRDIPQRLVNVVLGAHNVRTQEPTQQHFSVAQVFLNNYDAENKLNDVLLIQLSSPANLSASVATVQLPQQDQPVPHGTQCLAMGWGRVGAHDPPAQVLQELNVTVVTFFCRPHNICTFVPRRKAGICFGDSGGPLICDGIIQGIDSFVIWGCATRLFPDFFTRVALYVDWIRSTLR
Description: FIG. 4A-B. A, increased serum PR3 and IGFPR-3 proteolysis in high fat diet (HFD) mice. The increased IGFBP-3 proteolytic fragments and PR3 were detected in HFD compared with chow diet (CD) fed mice by Western immunoblotting using mouse IGFBP-3 or PR3 specific antibodies. […] IGFBP-3 proteolytic fragments were detected in recombinant IGFBP-3 (100 ng) and PR3 (500 ng) treated samples by Western immunoblotting.
FIG. 8. […] Recombinant IGFBP-3 (100 ng) was proteolyzed by treatment with […] PR3 for 60 min. at 37° C. (lane 2).
(§1) FIG. 9A-C. Inhibitory effect of the small peptide on NSP-induced IGFBP-3 proteolysis. […] Recombinant IGFBP-3 (100 ng) was proteolyzed by treatment with 100 nM PR3 for 60 min at 37° C. (lane 3). […] B. In vitro IGFBP-3 proteolysis by NE and CG. […] Recombinant IGFBP-3 (100 ng) was proteolyzed by treatment with NE (70 nM) and CG (200 nM) for 20 min. at 37° C. The treated samples were subject to Western immunoblotting using polyclonal IGFBP-3 antibodies. NE and CG proteolyze IGFBP-3 (lanes 2 and 7). […] C. The sequence of small inhibitory peptide (LIRCAML). Putative small inhibitory peptide binding site on PR3 ([…]) and NE ([…]), of which sequences are well conserved in both PR3 and NE.
Since it has been reported that PR3 appears to contribute to progression of chronic inflammatory diseases, we characterized PR3 as a specific IGFBP-3 protease in obese condition. The experiments were carried out using recombinant PR3 and IGFBP-3, and Western immunoblotting with IGFBP-3 specific antibody.
This peptide and/or suitable variants thereof can thus be used to treat individuals with chronic inflammation (obesity)-induced insulin resistance.

CG = biological target: T2, CG (Homo sapiens, UniProt P08311); assay: In vitro IGFBP-3 proteolysis by CG, Western immunoblotting; type: biochemical; conditions: recombinant IGFBP-3 100 ng; CG 200 nM, 20 min at 37° C.; FIG. 9B
T2 sequence (P08311 21-244): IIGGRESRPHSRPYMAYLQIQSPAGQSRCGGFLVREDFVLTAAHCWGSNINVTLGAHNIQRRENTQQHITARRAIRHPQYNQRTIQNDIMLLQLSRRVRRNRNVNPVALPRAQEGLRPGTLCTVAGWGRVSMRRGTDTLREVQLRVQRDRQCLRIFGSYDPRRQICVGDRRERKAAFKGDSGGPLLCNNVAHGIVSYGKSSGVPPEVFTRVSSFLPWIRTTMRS
Description: as §1

NSPs (PR3/NE/CG) = assay: In vitro IGFBP-3 protease assay with NSPs and inhibitors (Example 5); type: biochemical; conditions: recombinant IGFBP-3, NSPs (PR3/NE/CG); example written in present tense
From the text: Since PR3, NE and CG appear to be involved in inflammation and metabolic disorders, all three proteases are characterized with respect to IGFBP-3 proteolysis in vitro.

HFD C57BL/6 mice = assay: Insulin tolerance test (ITT) in HFD-induced obese mice (Example 6); type: in vivo; conditions: 60 mg/kg AAT for 7 weeks, 0.75 unit/kg insulin i.p., 15, 60, 90 and 120 min after insulin, p<0.05
Description: FIG. 10. Insulin tolerance test (ITT).
Assessment of body weight, fed and fasting glucose, intraperitoneal glucose tolerance test (IPGTT) and insulin tolerance test (ITT) were performed at 8, 15 weeks of HFD.
Weekly assessment of body weight was performed. IPGTT and ITT were analyzed at 8, 15 weeks of HFD.
Description of murine models: Six week old male C57BL6/J BomTac mice were obtained from Taconic, Hudson, N.Y., and kept at 22° C. on a 12:12-h light-dark cycle, with food and water ad libitum. All mice were placed on a normal rodent diet (ND) D12450B for 1 week and then divided into two groups and fed with ND and high fat diet (HFD) D12492 for 16 weeks. ND (D12450B, calories provided by fat 10%, protein 20%, Carbohydrate 70%) and HFD (D12492, calories provided by fat 60%, protein 20%, Carbohydrate 20%) were from Research Diets, new Brunswick, NJ52.
Insulin tolerance test (ITT): After a 7-day recovery period, an ITT was performed on the same mice. […]
Data Analysis: 1) Mice with HFD feeding and with/without NSP inhibitor treatments awere studied with assessment of body weight, fed and fasting glucose, IPGTT and ITT. Statistical analysis: Differences between groups are determined by ANOVA followed by Turkey post hoc tests or by Student t Test as appropriate. Significance is considered as p<0.05.

AOM-DSS-treated mice = assay: CAC mouse model, AOM-DSS-treated mice (Example 10); type: in vivo; conditions: AAT 60 mg/kg once weekly, Example 10, written in present tense
Description: Studies are also carried out to determine whether administration of the NSP inhibitor (Aralast) inhibits progression of CRC in a CAC mouse model.
First, serum NSPs, IGFBP-3 and IGFBP-3 proteolysis are determined during CRC development in AOM-DSS-treated mice with/without Aralast administration (60 mg/kg body weight once weekly) (6 mice/group). Serum NSPs (PR3,NE,CG), IGFBP-3, and proteolyzed IGFBP-3 and cytokines ([…], IL-6, IL-1β) are analyzed biweekly using Western immunoblotting, IGFBP-3 protease activity assays and mouse specific ELISAs (ELISA kits for PR3 from USCN life science; NE from Biotang USA; CG from CusaBio; TNF-α from Thermo Scientific; and IGFBP-3 from Sigma).
After sacrificing, mice colons are removed and flushed with phosphate-buffered saline (PBS) for macroscopic inspection. Tumor counts are performed in a blinded fashion. Tumor volume (V) is calculated […] by measuring length (L) and width (W) of the tumor with calipers and using the following formula: V={W×L×[(W+L)/2]}×0.52. Using paraformaldehyde fixed or fresh frozen tissue the proteins/genes involved in cell proliferation and inflammatory signaling are examined using Ki67 staining, apoptosis detection kit (Roche Dignostics GmbH) as well as immunoblotting and qRT-PCR for TNF-α, IL-6, IL-1β, NF-κB, IκBκ, IGFBP-3 and IGFBP-3R. […]

NSPs (PR3, NE, and CG) = assay: NSP-induced IGFBP-3 proteolysis with inhibitors (Example 10); type: biochemical; conditions: Example 10, written in present tense
From the text: The biological impact of NSPs (PR3, NE, and CG) on IGFBP-3 proteolysis and the antitumor actions of IGFBP-3/IGFBP-3R signaling is investigated, e.g. to characterize specific mechanisms by which NSPs modulate the biologic impact of IGFBP-3/IGFBP-3R on cell proliferation, apoptosis in CRC. Accordingly, the impact of NSPs on the antitumor and anti-inflammatory functions of IGFBP-3 in a variety of colon cancer cells (HT-29, Caco-2, HCT116 and LoVo) is investigated using recombinant IGFBP-3 (intact or NSP-proteolyzed fragments), NSPs and their inhibitors. The involvement of IGFBP-3R on IGFBP-3's effects is tested by manipulating endogenous IGFBP-3R expression using additional lentiviral-IGFBP-3-GFP, IGFBP-3R siRNAs, Adeno-IGFBP-3R, NSPs and protease inhibitors in the same cell systems.
Human and mouse specific IGFBP-3 antibodies (Abs)20, IGFBP-3R Abs20, IGFBP-3 protease assay, and adeno-, retro- and lenti-viral plasmids transfused with IGFBP-3, IGFBP-3R or their small hairpin RNAs (shRNAs) are utilized in these investigations.
The differential impact of intact IGFBP-3 and IGFBP-3 fragments on induction of apoptosis, cell proliferation in CRC cells is quantified using a Cell death assay, WST assay and qRT-PCR and immunoblotting.

NE = biological target: T3, NE (Homo sapiens, UniProt P08246); assay: In vitro IGFBP-3 proteolysis by NE, Western immunoblotting; type: biochemical; conditions: recombinant IGFBP-3 100 ng; NE 70 nM, 20 min at 37° C.; FIG. 9B
T3 sequence (P08246 30-267): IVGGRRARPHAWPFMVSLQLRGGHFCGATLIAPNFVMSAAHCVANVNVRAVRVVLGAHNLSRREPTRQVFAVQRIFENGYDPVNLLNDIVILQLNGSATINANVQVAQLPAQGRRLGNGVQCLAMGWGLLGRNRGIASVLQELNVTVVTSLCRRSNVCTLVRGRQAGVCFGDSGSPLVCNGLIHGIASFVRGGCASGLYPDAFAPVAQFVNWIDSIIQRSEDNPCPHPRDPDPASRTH
Description: Inhibitory effect of the small peptide on NSP-induced IGFBP-3 proteolysis. […] B. In vitro IGFBP-3 proteolysis by NE and CG. […] Recombinant IGFBP-3 (100 ng) was proteolyzed by treatment with NE (70 nM) and CG (200 nM) for 20 min. at 37° C. The treated samples were subject to Western immunoblotting using polyclonal IGFBP-3 antibodies.

[2] = recombinant IGFBP-3 100 ng, 100 nM PR3, 60 min at 37° C.

inhibition of IGFBP-3 proteolysis induced by 100 nM PR3 treatment (PR3; peptide at 0.5 μM, recombinant IGFBP-3 100 ng, 100 nM PR3, 60 min at 37° C.) | inhibitory effect on PR3 activity compared with AAT (PR3; peptide at 20 μM versus 100 nM AAT, 100 nM PR3) | Compound | effect on protease-induced IGFBP-3 proteolysis and inhibition of IGFBP-3's normal metabolic function [1] | inhibition of PR3-induced IGFBP-3 proteolysis (Western immunoblot, in words) (PR3; [2]) | inhibition of PR3-induced IGFBP-3 proteolysis (FIG. 4B, in words) (PR3; recombinant IGFBP-3 (100 ng) and PR3 (500 ng)) | inhibition of IGFBP-3 proteolysis by CG (in words) (CG) | NSP-induced proteolysis of IGFBP-3 (Example 5, in words) (NSPs (PR3/NE/CG)) | blood glucose levels in ITT versus PBS control (HFD C57BL/6 mice) | tumor incidence and size compared with untreated mice (AOM-DSS-treated mice) | NSP-induced proteolysis of IGFBP-3 (Example 10, in words) (NSPs (PR3, NE, and CG)) | inhibition of IGFBP-3 proteolysis by NE (in words) (NE)
 |  | CC(C)[C@@H]1C(=O)N(S(C)(=O)=O)[C@@H]2CCN(C(=O)/C=C/CN3CCCCC3)[C@H]21.Cl [GW311616A, reference compound] | reverse this effect |  |  |  |  |  |  |  | 
 |  | α-1-antitrypsin [AAT] |  | inhibited | completely inhibited; also recorded: Few IGFBP-3 proteolytic fragments were detected | inhibited | blocked | significantly lower | decreases tumor incidence and size | blocked | 
more than 50% | comparable to that of 100 nM AAT | LIRCAML (Synthetic peptide inhibitor) | reverse this effect | potent inhibitory effect; also recorded: inhibited IGFBP-3 proteolysis in a dose-dependent manner (0.5-20 μM); also recorded: inhibited IGFBP-3 proteolysis in a does-dependent manner (0.05-1 μM) |  | inhibited IGFBP-3 proteolysis by NE or CG in a dose-dependent manner (0.5-1 μM) | blocked |  |  |  | inhibited IGFBP-3 proteolysis by NE or CG in a dose-dependent manner (0.5-1 μM)
